Measurements as given in patent US20210292413A1 (ACADEMIA SINICA, published 2021).

Key:
[1] = biological target: T1, human Siglec-3 on cells (moDC, PBMC of CHB patients) (human, UniProt P20138 18-364); test: co-IP (IP: Siglec-3) from moDC, lane Mock; Western blot, densitometry [A]
T1 construct: whole, on cells; also called Siglec-3 receptor

[2] = biological target: T1, human Siglec-3 on cells (moDC, PBMC of …); test: co-IP (IP: Siglec-3) from moDC treated with HBV (hHBV); Western blot, densitometry, fold of Mock [A]
[3] = biological target: T1, human Siglec-3 on cells (moDC, PBMC of …); test: co-IP (IP: Siglec-3) from moDC treated with anti-Siglec-3 mAb 10C8; Western blot, densitometry, fold of Mock [A]
[4] = biological target: T1, human Siglec-3 on cells (moDC, PBMC of …); test: co-IP (IP: Siglec-3) from moDC, HBV +, 10C8 -; Western blot, densitometry, normalized to the untreated control [E]
[5] = biological target: T1, human Siglec-3 on cells (moDC, PBMC of …); test: co-IP (IP: Siglec-3) from moDC, HBV -, 10C8 +; Western blot, densitometry, normalized to the untreated control [E]
[6] = biological target: T1, human Siglec-3 on cells (moDC, PBMC of …); test: co-IP (IP: Siglec-3) from moDC, HBV -, 10C8 -; Western blot, densitometry, normalized to the untreated control [E]
[7] = biological target: T1, human Siglec-3 on cells (moDC, PBMC of …); test: co-IP (IP: Siglec-3) from moDC incubated with hHBV for 0 min; Western blot, densitometry, normalized to the starting point [E]
[8] = biological target: T1, human Siglec-3 on cells (moDC, PBMC of …); test: co-IP (IP: Siglec-3) from moDC incubated with hHBV for 15 min; Western blot, densitometry, normalized to the starting point [E]
[9] = biological target: T1, human Siglec-3 on cells (moDC, PBMC of …); test: co-IP (IP: Siglec-3) from moDC incubated with hHBV for 30 min; Western blot, densitometry, normalized to the starting point [E]
[10] = biological target: T1, human Siglec-3 on cells (moDC, PBMC of …); test: co-IP (IP: Siglec-3) from moDC incubated with hHBV for 60 min; Western blot, densitometry, normalized to the starting point [E]
[11] = biological target: T1, human Siglec-3 on cells (moDC, PBMC of …); test: co-IP (IP: Siglec-3) from moDC incubated 30 mins with 0 copies/mL hHBV; Western blot, densitometry, normalized to the first lane [F]
[12] = biological target: T1, human Siglec-3 on cells (moDC, PBMC of …); test: co-IP (IP: Siglec-3) from moDC incubated 30 mins with 10^8 copies/mL hHBV; Western blot, densitometry, normalized to the first lane [F]
[13] = biological target: T1, human Siglec-3 on cells (moDC, PBMC of …); test: co-IP (IP: Siglec-3) from moDC incubated 30 mins with 10^9 copies/mL hHBV; Western blot, densitometry, normalized to the first lane [F]
[14] = biological target: T1, human Siglec-3 on cells (moDC, PBMC of …); test: co-IP (IP: Siglec-3) from moDC incubated 30 mins with 3x10^8 copies/mL hHBV; Western blot, densitometry, normalized to the first lane [F]
[15] = biological target: T1, human Siglec-3 on cells (moDC, PBMC of …); test: co-IP (IP: Siglec-3) from moDC treated with anti-Siglec-3 mAb 2B9; Western blot, densitometry, fold of Mock; strong band at the 72 mark [A]
[16] = biological target: T1, human Siglec-3 on cells (moDC, PBMC of …); test: co-IP (IP: Siglec-3) from moDC, HBV +, 10C8 + (10C8 given 1 hour before HBV); Western blot, densitometry, normalized to the untreated control [E]
[17] = biological target: T1, human Siglec-3 on cells (moDC, PBMC of …); test: flow cytometry on moDC with APC-conjugated anti-Siglec-3 mAb

SHP-1, sequence (P29350 whole entry): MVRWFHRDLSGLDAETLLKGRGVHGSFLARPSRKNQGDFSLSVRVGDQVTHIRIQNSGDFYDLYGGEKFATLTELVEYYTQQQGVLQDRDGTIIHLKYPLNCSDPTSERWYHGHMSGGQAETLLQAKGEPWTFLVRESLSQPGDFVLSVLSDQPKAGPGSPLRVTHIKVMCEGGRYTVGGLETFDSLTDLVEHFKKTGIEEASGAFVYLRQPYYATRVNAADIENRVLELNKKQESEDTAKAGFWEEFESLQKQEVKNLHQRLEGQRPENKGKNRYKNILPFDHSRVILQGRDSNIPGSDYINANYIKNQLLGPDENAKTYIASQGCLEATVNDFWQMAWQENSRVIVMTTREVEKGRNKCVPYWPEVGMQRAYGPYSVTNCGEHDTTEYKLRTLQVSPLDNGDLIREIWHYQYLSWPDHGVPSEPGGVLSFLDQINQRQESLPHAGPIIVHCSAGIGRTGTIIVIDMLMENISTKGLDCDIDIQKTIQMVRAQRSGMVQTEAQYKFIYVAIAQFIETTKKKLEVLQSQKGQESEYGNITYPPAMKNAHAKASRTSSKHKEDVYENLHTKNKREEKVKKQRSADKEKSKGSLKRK
T1 sequence (P20138 18-364): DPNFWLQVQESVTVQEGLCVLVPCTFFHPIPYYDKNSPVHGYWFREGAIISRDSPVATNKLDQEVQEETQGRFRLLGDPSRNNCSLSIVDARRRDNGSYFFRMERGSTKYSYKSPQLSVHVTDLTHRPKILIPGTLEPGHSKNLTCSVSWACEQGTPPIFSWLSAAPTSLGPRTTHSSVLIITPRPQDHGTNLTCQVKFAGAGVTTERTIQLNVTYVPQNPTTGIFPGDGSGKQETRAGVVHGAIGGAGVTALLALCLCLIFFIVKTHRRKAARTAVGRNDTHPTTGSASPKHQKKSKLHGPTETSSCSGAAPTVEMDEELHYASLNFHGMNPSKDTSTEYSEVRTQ

Row | Binder | fold change of SHP-1 co-precipitated with Siglec-3 [1] [fold] | fold change of SHP-1 co-precipitated with Siglec-3 [2] [fold] | fold change of SHP-1 co-precipitated with Siglec-3 [3] [fold] | fold change of SHP-1 co-precipitated with Siglec-3 [4] [fold] | fold change of SHP-1 co-precipitated with Siglec-3 [5] [fold] | fold change of SHP-1 co-precipitated with Siglec-3 [6] [fold] | fold change of SHP-1 co-precipitated with Siglec-3 [7] [fold] | fold change of SHP-1 co-precipitated with Siglec-3 [8] [fold] | fold change of SHP-1 co-precipitated with Siglec-3 [9] [fold] | fold change of SHP-1 co-precipitated with Siglec-3 [10] [fold] | fold change of SHP-1 co-precipitated with Siglec-3 [11] [fold] | fold change of SHP-1 co-precipitated with Siglec-3 [12] [fold] | fold change of SHP-1 co-precipitated with Siglec-3 [13] [fold] | fold change of SHP-1 co-precipitated with Siglec-3 [14] [fold] | fold change of SHP-1 co-precipitated with Siglec-3 [15] [fold] | fold change of SHP-1 co-precipitated with Siglec-3 [16] [fold] | binding result [17]
1 | SHP-1 (enzyme) not shown | 1 | 2.4 | 1.3 | 10 | 1.3 | 1 | 1 | 9.1 | 26 | 11 | 1 | 1.5 | 14 | 7.7 | 36 | 1.2 | –
2 | anti-Siglec-3 mAb clone 10C8 (antibody, human IgG1, kappa, V domains shown, the isotype control used beside it is IgG1; also called mAb 10C8; antibody 10C8) VH: EVQLVESGGGLVQPGGSLRLSCAASGFTINNGWIHWVRQAPGKGLEWVAGIGPYGGSTFYADSVKGRFTISADTSKNTAYLQMNSLRAEDTAVYYCSRFIGSYSHMDYWGQGTLVTVSS VL: DIQMTQSPSSLSASVGDRVTITCRASQDVYYYVAWYQQKPGKAPKLLISSAGGLYSGVPSRFSGSGSGTDFTLTISSLQPEDFATYYCQQYFNFPLTFGQGTKVEIKR | – | – | – | – | – | – | – | – | – | – | – | – | – | – | – | – | binds
